Reference: patent US20220363770A1 (Amgen, published 2022)
Positions count from the first letter of the chain named.

B1: iPS:454823 (bispecific antibody, human IgG1, kappa, lambda, N297G)
light 1: QSVLTQPPSVSAAPGQKVTISCSGSRSNIGIKAVSWYQQLPGTAPKLLIYDNNKRPSGIPDRFSGSKSGTSATLGITGLQTGDEADYYCGTWDSRLSAVVFGGGTKLTVLGQPKAAPSVTLFPPSSEELQANKATLVCLISDFYPGAVTVAWKADSSPVKAGVETTTPSKQSNNKYAAKSYLSLTPEQWKSHRSYSCQVTHEGSTVEKTVAPTECS
heavy 1: QVQLVESGGGVVQPGRSLRLSCAASGFTFSSFGMHWVRQAPGKGLEWVAVISFDGSIKYSVDSVKGRFTISRDNSKNTLFLQMNSLRAEDTAVYYCARDRLNYYESSGYYHYKYYGMAVWGQGTTVTVSSASTKGPSVFPLAPSSKSTSGGTAALGCLVKDYFPEPVTVSWNSGALTSGVHTFPAVLQSSGLYSLESVVTVPSSSLGTQTYICNVNHKPSNTKVDKKVEPKSCDKTHTCPPCPAPELLGGPSVFLFPPKPKDTLMISRTPEVTCVVVDVSHEDPEVKFNWYVDGVEVHNAKTKPCEEQYGSTYRCVSVLTVLHQDWLNGKEYKCKVSNKALPAPIEKTISKAKGQPREPQVYTLPPSRKKMTKNQVSLTCLVKGFYPSDIAVEWESNGQPENNYKTTPPVLKSDGSFFLYSKLTVDKSRWQQGNVFSCSVMHEALHNHYTQKSLSLSPGK
light 2: EIVLTQSPATLSLSPGERATLSCRASKSVGRSLHWYQQKPGQAPRLLIKYASQSLSGIPARFSGSGSGTDFTLTISSLEPEDFAVYYCHQSSRLPFTFGPGTKVDIKRTVAAPSVFIFPPSDEQLKSGTASVVCLLNNFYPREAKVQWKVDNALQSGNSQESVTEQDSKDSTYSLESTLTLSKADYEKHKVYACEVTHQGLSSPVTKSFNRGEC
heavy 2: not shown
B2: iPS:454833 (bispecific antibody, human IgG1, kappa, lambda, N297G)
light 1: B1 light 1
heavy 1: B1 heavy 1
light 2: B1 light 2
heavy 2: not shown
B3: iPS:454831 (bispecific antibody, human IgG1, kappa, lambda, N297G)
light 1: B1 light 1
heavy 1: B1 heavy 1
light 2: B1 light 2 with K27Q
heavy 2: not shown
B4: iPS:454825 (bispecific antibody, human IgG1, kappa, lambda, N297G)
light 1: B1 light 1
heavy 1: B1 heavy 1
light 2: B1 light 2
heavy 2: not shown
B5: iPS:454835 (bispecific antibody, human IgG1, kappa, lambda, N297G)
light 1: B1 light 1
heavy 1: B1 heavy 1
light 2: B1 light 2
heavy 2: not shown
B6: iPS:454827 (bispecific antibody, human IgG1, kappa, lambda, N297G)
light 1: B1 light 1
heavy 1: B1 heavy 1
light 2: B1 light 2 with K27Q
heavy 2: not shown
B7: iPS:454829 (bispecific antibody, human IgG1, kappa, lambda, N297G)
light 1: B1 light 1
heavy 1: B1 heavy 1
light 2: B1 light 2 with K27Q
heavy 2: not shown

Columns and labels:
human CGRP receptor = human CGRP receptor (human, UniProt Q16602 23-461; O60894 27-148); assay: cell-based or functional assay
human PAC1 receptor = target: T1, human PAC1 receptor (human, UniProt P41586 24-468); assay: cell-based or functional assay
T1 sequence: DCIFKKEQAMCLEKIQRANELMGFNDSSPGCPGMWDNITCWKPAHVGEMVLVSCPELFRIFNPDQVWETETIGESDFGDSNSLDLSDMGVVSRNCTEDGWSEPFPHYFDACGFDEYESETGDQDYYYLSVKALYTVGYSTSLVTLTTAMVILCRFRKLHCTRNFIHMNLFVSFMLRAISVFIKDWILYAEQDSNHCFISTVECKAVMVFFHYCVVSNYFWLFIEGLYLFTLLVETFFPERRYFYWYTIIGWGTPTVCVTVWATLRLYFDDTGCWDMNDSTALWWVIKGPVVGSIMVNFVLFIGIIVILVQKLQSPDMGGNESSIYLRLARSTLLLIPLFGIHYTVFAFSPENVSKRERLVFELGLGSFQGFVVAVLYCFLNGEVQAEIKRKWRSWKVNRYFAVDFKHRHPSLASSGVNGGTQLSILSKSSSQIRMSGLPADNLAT

human CGRP receptor, sequence (Q16602 23-461 limits assumed, chain 1 of 2): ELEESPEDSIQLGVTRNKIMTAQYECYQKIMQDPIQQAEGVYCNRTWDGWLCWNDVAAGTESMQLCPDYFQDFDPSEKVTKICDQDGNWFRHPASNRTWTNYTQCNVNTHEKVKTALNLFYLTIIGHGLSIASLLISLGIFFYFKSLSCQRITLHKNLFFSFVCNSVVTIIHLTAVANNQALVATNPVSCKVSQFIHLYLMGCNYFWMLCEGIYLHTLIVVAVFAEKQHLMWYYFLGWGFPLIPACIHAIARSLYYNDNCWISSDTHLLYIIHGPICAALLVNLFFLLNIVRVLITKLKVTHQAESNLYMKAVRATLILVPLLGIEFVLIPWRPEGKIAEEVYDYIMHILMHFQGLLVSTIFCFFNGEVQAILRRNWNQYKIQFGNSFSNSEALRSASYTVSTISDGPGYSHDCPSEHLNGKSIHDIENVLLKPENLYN
human CGRP receptor, sequence (O60894 27-148 limits assumed, chain 2 of 2): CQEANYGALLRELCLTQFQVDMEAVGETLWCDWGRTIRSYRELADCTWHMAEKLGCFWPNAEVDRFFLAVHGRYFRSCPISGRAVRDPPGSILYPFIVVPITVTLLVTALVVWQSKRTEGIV

| Binder | Fold-improvement over 4E4 Ab (human CGRP receptor) [fold] | IC50 (human CGRP receptor) [nM] | Fold-improvement over 29G4v22 Ab (human PAC1 receptor) [fold] | IC50 (human PAC1 receptor) [nM] |
| --- | --- | --- | --- | --- |
| B1 | 1.5 | 0.39 | 8.3 | 0.8 |
| B2 | 2.6 | 0.24 | 9 | 0.76 |
| B3 | 1.7 | 0.38 | 7.6 | 0.9 |
| B4 | 2 | 0.29 | 8.4 | 0.79 |
| B5 | 2.2 | 0.28 | 9.3 | 0.73 |
| B6 | 1.7 | 0.34 | 8.9 | 0.75 |
| B7 | 1.8 | 0.36 | 9.8 | 0.7 |
